The values that follow are results of earlier work, collected in PMC10366146.

In general, Kd refers to the free concentration of one partner at which half of the binding sites on the other are occupied at equilibrium, for simple one-to-one binding.

The data set has as its target VEGFR2 (Homo sapiens) (UniProt P35968).
Sequence of UniProt P35968 (P35968 20-1356): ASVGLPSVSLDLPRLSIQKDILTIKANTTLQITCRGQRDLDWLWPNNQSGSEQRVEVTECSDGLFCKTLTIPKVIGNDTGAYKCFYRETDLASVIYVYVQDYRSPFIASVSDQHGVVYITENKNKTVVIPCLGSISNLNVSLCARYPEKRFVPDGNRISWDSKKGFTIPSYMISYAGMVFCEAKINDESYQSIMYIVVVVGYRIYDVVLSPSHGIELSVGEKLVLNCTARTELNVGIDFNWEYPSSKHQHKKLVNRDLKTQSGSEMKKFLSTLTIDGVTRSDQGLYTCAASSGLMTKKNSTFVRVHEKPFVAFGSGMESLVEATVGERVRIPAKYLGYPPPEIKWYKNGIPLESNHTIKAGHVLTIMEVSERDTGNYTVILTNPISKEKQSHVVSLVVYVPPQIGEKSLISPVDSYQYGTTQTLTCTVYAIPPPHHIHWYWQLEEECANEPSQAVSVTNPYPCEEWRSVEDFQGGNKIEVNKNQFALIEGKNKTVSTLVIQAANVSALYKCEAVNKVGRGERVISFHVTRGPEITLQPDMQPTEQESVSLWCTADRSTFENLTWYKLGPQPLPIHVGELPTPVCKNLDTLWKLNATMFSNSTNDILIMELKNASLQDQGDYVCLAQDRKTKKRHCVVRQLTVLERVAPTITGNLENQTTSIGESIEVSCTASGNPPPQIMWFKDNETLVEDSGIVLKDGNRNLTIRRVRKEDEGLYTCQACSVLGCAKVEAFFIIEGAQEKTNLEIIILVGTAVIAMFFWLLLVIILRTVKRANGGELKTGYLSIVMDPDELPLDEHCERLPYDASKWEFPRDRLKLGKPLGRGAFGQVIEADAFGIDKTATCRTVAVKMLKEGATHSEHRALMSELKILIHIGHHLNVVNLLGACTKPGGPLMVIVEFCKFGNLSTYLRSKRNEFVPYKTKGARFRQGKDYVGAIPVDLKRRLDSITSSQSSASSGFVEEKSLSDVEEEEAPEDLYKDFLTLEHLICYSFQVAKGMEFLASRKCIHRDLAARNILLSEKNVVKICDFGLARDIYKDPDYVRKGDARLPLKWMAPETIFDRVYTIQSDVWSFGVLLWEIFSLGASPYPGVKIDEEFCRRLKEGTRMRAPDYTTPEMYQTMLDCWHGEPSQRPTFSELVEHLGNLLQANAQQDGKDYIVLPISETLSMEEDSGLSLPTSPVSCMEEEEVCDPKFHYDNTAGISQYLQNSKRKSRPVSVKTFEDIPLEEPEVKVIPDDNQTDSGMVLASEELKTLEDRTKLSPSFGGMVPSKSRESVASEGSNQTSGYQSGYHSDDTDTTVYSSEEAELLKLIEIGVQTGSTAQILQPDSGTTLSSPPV

In the case of VEGF121 VEGF121 (from UniProt P15692), the Kd was 5.5 nM.
